Measurements reported in the supplement of paper PMC9732359.
± gives the uncertainty stated by the source.

Assay: protein stability index of a GFP-peptide fusion (yeast GPS) (PSI 1-4); higher = more stable; sorted into four equal gates, so the index is relative within each strain
How it was run: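 Plasmids in a pooled yeast library fused tiled 17-residue yeast protein peptides downstream of GFP and also expressed Cherry. Mid-log cultures grown without leucine were sorted into four equal gates by GFP/Cherry fluorescence ratio. Each gate's plasmids were PCR-amplified and Illumina-sequenced, and reads were matched to strains by barcodes. The protein stability index is derived by multiplying each gate's read frequency by its gate number and summing the results.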

Row | Sequence | protein stability index (doa10∆) | protein stability index (pdr5∆) | protein stability index (san1∆) | protein stability index (ubr1∆)
1 | VFGISKTSSGSYNYVEN [ITC1] | 3.33 ± 0.083 | 3.12 ± 0.073 | 3.17 ± 0.06 | 3.28 ± 0.041
2 | SNTYKEERSNNLLTPQP [MCD1] | 2.76 ± 0.078 | 3.18 ± 0.094 | 3.01 ± 0.046 | 3.2 ± 0.051
3 | EKELKIFTDAGRVYRPL [RPB2] | 3.04 ± 0.067 | 3.44 ± 0.082 | 3.09 ± 0.063 | 3.34 ± 0.042
4 | FIEVRNFLGDKKIRNVP [RPL9A] |  |  |  | 3.16 ± 0.12
5 | LSDYIPGPYPNEQAARA [CYT1] | 2.1 ± 0.054 | 2.54 ± 0.05 | 2.4 ± 0.063 | 2.39 ± 0.05
6 | FESSSSLPFLLRHMPLA [SSN2] | 2.17 ± 0.16 | 1.61 ± 0.17 | 2.76 ± 0.18 | 1.48 ± 0.11
7 | IWMRGHGTYFLDNMTYS [RRP4] | 2.45 ± 0.06 | 2.38 ± 0.051 | 2.31 ± 0.082 | 2.19 ± 0.054
8 | LLKKIIFEKELMYQIKK [SRB4] | 2.8 ± 0.073 | 2.67 ± 0.083 | 2.32 ± 0.09 | 2.17 ± 0.05
9 | RMVRSIMWQLLDGVSYL [SSN3] | 1.27 ± 0.078 | 1.26 ± 0.1 | 1.18 ± 0.12 | 1.34 ± 0.1
10 | NCNIKDFKPPYIYSHVN [SWP82] | 2.73 ± 0.086 | 2.77 ± 0.086 | 2.45 ± 0.11 | 2.91 ± 0.057
11 | FILTIATAFLGYCCVYG [COB] | 1.66 ± 0.098 | 1.27 ± 0.11 | 1.22 ± 0.22 | 1.36 ± 0.072
12 | SDLINKDLVKNNVSFNA [FAS1] | 2.61 ± 0.068 | 2.58 ± 0.074 | 1.62 ± 0.11 | 2.26 ± 0.053
13 | SSNIVNENDSQAIITER [YIL149C/MLP2] | 3.14 ± 0.12 | 2.93 ± 0.086 | 2.07 ± 0.26 | 2.86 ± 0.057
14 | YSEEPREKVRKLSQYVQ [FAS2] |  |  |  | 3.16 ± 0.26
15 | YGDGNGKGDNDNGLGPL [SWI3] | 3.46 ± 0.15 | 3.13 ± 0.3 | 3.31 ± 0.073 | 3 ± 0.1
16 | ENITNKVTEKVLTQLTA [CSI1] | 2.62 ± 0.051 | 2.22 ± 0.037 | 2.4 ± 0.041 | 2.69 ± 0.041
17 | YGMSITETFEKPQRTNT [RPB2] | 3.03 ± 0.14 | 3.35 ± 0.17 | 3.04 ± 0.12 | 3.12 ± 0.11
18 | VTRTQQWSMVAQRLQIS [SWI1] | 2.05 ± 0.051 | 1.89 ± 0.049 | 2.27 ± 0.07 | 2.06 ± 0.04
19 | TVRLVNLFSSTGFKGLL [SRB2] | 2.31 ± 0.073 | 2.73 ± 0.055 | 2.76 ± 0.06 | 2.9 ± 0.039
20 | MDLLKFSSLAISEINFL [CSI1] | 2.1 ± 0.045 | 2.49 ± 0.037 | 2.16 ± 0.053 | 2.35 ± 0.047
21 | RLANLIDYKLRVLTQDG [SMB1] | 2.65 ± 0.089 | 2.69 ± 0.08 | 1.62 ± 0.13 | 2.79 ± 0.047
22 | QNVTSETHSKKRKKEAN [ITC1] | 2.92 ± 0.075 | 3.02 ± 0.075 | 2.94 ± 0.041 | 3.08 ± 0.073
23 | IAYSDSQSSNANICLTF [SIN4] | 2.74 ± 0.1 | 2.7 ± 0.065 | 2.38 ± 0.081 | 2.89 ± 0.069
24 | KRYRLKESQLPRIQRAD [RPB5] | 2.86 ± 0.17 | 3.16 ± 0.15 | 3.02 ± 0.1 | 3.07 ± 0.082
25 | LLIADSRRPEPKKFGGK [RPS16A] | 3 ± 0.091 | 3.12 ± 0.077 | 3.23 ± 0.065 | 3.07 ± 0.05
26 | TEHLTELSDNEENFEAT [YCG1] | 2.87 ± 0.14 | 3.15 ± 0.16 | 3.54 ± 0.099 | 2.96 ± 0.12

Row | Sequence | protein stability index (doa10∆) | protein stability index (pdr5∆) | protein stability index (san1∆) | protein stability index (ubr1∆)
27 | SFDEWFNTPFANTGGQD [SNF2] | 2.8 ± 0.099 | 2.99 ± 0.12 | 3.41 ± 0.095 | 3.15 ± 0.15
28 | EIMQQKFPATNVTTILD [ECM29] | 2.41 ± 0.061 | 2.47 ± 0.055 | 2.19 ± 0.063 | 2.45 ± 0.057
29 | GSSGGVIRMVVLTAAGV [PRE3] | 2.33 ± 0.086 | 1.74 ± 0.075 | 2.64 ± 0.12 | 1.74 ± 0.049
30 | LVVYAEDNGIVKALRNV [RPL4A] | 2.1 ± 0.14 | 3.16 ± 0.12 | 2.59 ± 0.086 | 2.57 ± 0.12
31 | MMEEIINVVIKASRKSV [ECM29] | 1.76 ± 0.073 | 1.75 ± 0.068 | 2.04 ± 0.21 | 1.53 ± 0.12
32 | SPNPTLQPVIPGGAASK [SNF5] | 3.23 ± 0.093 | 3.24 ± 0.082 | 3.19 ± 0.058 | 2.88 ± 0.059
33 | TFPVGRVHRLLRRGNYA [HTA1] | 2.38 ± 0.13 | 2.86 ± 0.14 | 2.5 ± 0.087 | 2.27 ± 0.12
34 | DLYEQIGIDPPRGVLLY [RPT3] | 2.6 ± 0.073 | 3.02 ± 0.1 | 2.8 ± 0.055 | 2.9 ± 0.08
35 | RVIDDNNRRRSRKRGGE [SIR3] | 3.57 ± 0.086 | 3.36 ± 0.11 | 3.21 ± 0.11 | 3.46 ± 0.084
36 | LLYYIPSLELSAEYLQM [YJR042W/NUP85] | 1.12 ± 0.09 | 2.03 ± 0.18 | 1.45 ± 0.29 | 1.15 ± 0.12
37 | VELHGKRKLDIGKDTFV [PRP8] | 3.26 ± 0.29 | 2.94 ± 0.13 | 2.47 ± 0.17 | 2.21 ± 0.11
38 | DLGITEKNDQNNDDDDN [MCD1] |  | 2.97 ± 0.14 |  | 3.41 ± 0.24
39 | TQTESKKEENETISNVA [SNF2] | 3.07 ± 0.056 | 3.1 ± 0.048 | 2.98 ± 0.045 | 3.19 ± 0.038
40 | YVNALADVLYKTAFKPH [QCR2] | 3.04 ± 0.054 | 3.06 ± 0.048 | 2.72 ± 0.038 | 2.81 ± 0.05
41 | NTLRMKHGTYDKLDDDG [RPB2] | 2.77 ± 0.077 | 2.83 ± 0.061 | 2.83 ± 0.063 | 2.89 ± 0.045
42 | TRLYDYEIRDIDQDIHG [SSN2] | 3.54 ± 0.11 | 3.55 ± 0.16 | 3.48 ± 0.094 | 3.49 ± 0.11
43 | GFIENCNGSALVEARSL [MTR3] | 2.66 ± 0.1 | 2.83 ± 0.085 | 2.23 ± 0.12 | 2.15 ± 0.12
44 | TFNSKPVRTIVPISTSQ [SIR4] | 2.32 ± 0.037 | 2.46 ± 0.037 | 2.42 ± 0.039 | 2.35 ± 0.028
45 | EEKSNEVKTPKIPLFTF [SIR4] | 2.82 ± 0.061 | 2.94 ± 0.065 | 2.57 ± 0.048 | 2.79 ± 0.047
46 | PTESYLQYIIHDTLNNE [BRR2] | 2.22 ± 0.058 | 2.43 ± 0.07 | 2.37 ± 0.097 | 2.26 ± 0.065
47 | MLLLNIFISSDHEFVLI [YMR129W/POM152] | 1.64 ± 0.057 | 1.28 ± 0.055 | 1.32 ± 0.098 | 1.23 ± 0.057
48 | EDYELSPQAVSSFVRQE [PRE1] | 2.29 ± 0.14 | 2.42 ± 0.15 | 2.31 ± 0.093 | 2.53 ± 0.083
49 | LRKQKDSSTTSSNSQQS [ITC1] | 3.12 ± 0.059 | 3.04 ± 0.066 | 3.07 ± 0.06 | 3.19 ± 0.059
50 | NLDSSITQDGKFAYKID [YMR129W/POM152] | 2.38 ± 0.065 | 2.69 ± 0.064 | 2.26 ± 0.08 | 2.71 ± 0.05
51 | SSNLYETIIEADKSLPS [YJR042W/NUP85] | 2.76 ± 0.054 | 2.97 ± 0.052 | 2.94 ± 0.039 | 2.96 ± 0.061
52 | SVIQLCGGINDSIPYPQ [ECM29] | 3.16 ± 0.17 | 2.59 ± 0.23 | 2.57 ± 0.13 | 2.88 ± 0.078
